Data on two molecules can be found in patent publication US20110183942A1, “Methods and Compositions for Treating Alzheimer's Disease” (UNIVERSITY OF MEDICINE AND DENTISTRY OF NEW JERSEY, priority 2008, published 2011).

Test [1] deals with T1, eEF2 kinase (Homo sapiens, UniProt O00418).
T1 construct: made in house; host or cells: E. coli
The experiment in a line: Peptide substrate phosphorylation by eEF2 kinase. Format: biochemical. The text has this: While alpha-kinase phosphorylation sites are typically found within alpha-helicies of peptide substrates, it was unknown for eEF2K if alpha-kinases recognized target substrates based on a specific primary peptide sequence around the phosphorylation site of eEF2K, or whether the alpha-helical secondary structure is responsible for the phosphorylation by alpha-kinases. To clarify this an arrayed peptide library screen was used (Turk, Yale Med. Sch. Dept. Pharmacol.) that thoroughly evaluated for specific kinase preference all 20 amino acids at each of nine positions neighboring the phosphorylation site.
Every peptide comprising this library contained a central fixed phosphorylation site where equimolar quantities of threonine and serine were introduced; each peptide also contained a carboxy-terminal biotin label. […]
Reactions in this screen were run for a given incubation time and then spotted simultaneously on a streptavidin membrane through use of a high throughput capillary-based liquid transfer device. Submersion of the membrane in a specified quenching solution stripped away unincorporated ATP and then radiolabeled-ATP incorporation was measured using a phosphoimager. […]

Test [2] addresses T1, eEF2 kinase. Description: HTS screen for eEF2 kinase inhibitors (ATP depletion coupled to luciferase luminescence, eEF2p substrate). Type of test: biochemical.

Where no end group is shown, it is not given here.

Turning to Ac-RKKYKFNEDTERRRFL [eEF2p], in the test with eEF2 kinase [1], the “efficiency as substrate compared with the MH-U peptide” value is reported as “two orders of magnitude more efficient”.

Take `CCCCCCCCCCCCCCCCN1C=CN(c2ccccc2)C1` [L-207]: at eEF2 kinase [2], the “identified as inhibitor for eEF2 kinase” value is reported as “inhibitors for eEF2 kinase”.
